This is an account of results in paper PMC7782693, “Structural insights into photoactivation of plant Cryptochrome-2” (Communications Biology, 2021).

In general, stoichiometry N refers to a count of units in the complex or per binding partner.

Series [1] concerns the molecule itself. Put plainly: SEC; Superdex-200 gel filtration, 20 mM Tris pH 8.0, 200 mM NaCl, 2 mM DTT, 4% glycerol; molecular weights estimated against standards.
Series [2] concerns the molecule itself. Briefly: crystal structure; hanging-drop vapor diffusion at 25 °C under continuous full-spectrum white light (40 μmol m^2 s^-1); 1.5 M sodium nitrate, 0.1 M BIS-TRIS propane pH 7.0; tetramer of four monomers A-D.

B1: Arabidopsis CRY2 photolyase homologous region (PHR) domain (domain or fragment, Arabidopsis thaliana, UniProt Q96524 1-498, looked up)
chain: MKMDKKTIVWFRRDLRIEDNPALAAAAHEGSVFPVFIWCPEEEGQFYPGRASRWWMKQSLAHLSQSLKALGSDLTLIKTHNTISAILDCIRVTGATKVVFNHLYDPVSLVRDHTVKEKLVERGISVQSYNGDLLYEPWEIYCEKGKPFTSFNSYWKKCLDMSIESVMLPPPWRLMPITAAAEAIWACSIEELGLENEAEKPSNALLTRAWSPGWSNADKLLNEFIEKQLIDYAKNSKKVVGNSTSLLSPYLHFGEISVRHVFQCARMKQIIWARDKNSEGEESADLFLRGIGLREYSRYICFNFPFTHEQSLLSHLRFFPWDADVDKFKAWRQGRTGYPLVDAGMRELWATGWMHNRIRVIVSSFAVKFLLLPWKWGMKYFWDTLLDADLECDILGWQYISGSIPDGHELDRLDNPALQGAKYDPEGEYIRQWLPELARLPTEWIHHPWDAPLTVLKASGVELGTNYAKPIVDIDTARELLAKAISRTREAQIMIGAA
notes: Cryptochrome-2 (CRY2), Arabidopsis thaliana, PHR domain, residues 1-498, wild type; Expressed as a GST fusion from the pFastbac-GST vector; GST removed by TEV protease on the column; The crystal holds four copies (monomers A-D); in solution mostly monomer; also called AtCRY2-PHR; CRY2-PHR
Consider B1, for which the figures for the “stoichiometry N” value in series [1] and in series [2] were 2 and 4, respectively.
